Data published in the supplement of paper PMC9170038.

Test system: MS2 coat protein
Assay: apparent KD of MS2 coat protein; designed switch direction (-1 OFF switch, 1 ON switch): 1; higher = weaker reporter binding
Method in brief: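 For each design, the apparent KD is the median over clusters of curves fitted to normalised cluster fluorescence. Clusters held RNA switches with common flanks, transcribed on Illumina chips by stalled E. coli RNA polymerase. These were titrated with SNAP-549-labelled MS2 coat protein, doubling from 0.7 or 1.5 nM to 3 µM, without input, with 200 uM small-molecule ligand, or with an oligonucleotide input.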

[1] = input ligand: microRNA oligo, concentration not stated
[2] = Eterna round: R95, input ligand: FMN 200 uM
[3] = Eterna round: R95, input ligand: microRNA oligo, concentration not stated
[4] = Eterna round: R95, input ligand: none

Sequence | apparent KD of MS2 coat protein (input ligand: FMN 200 uM) [nM] | apparent KD of MS2 coat protein [1] [nM] | apparent KD of MS2 coat protein (input ligand: none) [nM] | apparent KD of MS2 coat protein [2] [nM] | apparent KD of MS2 coat protein [3] [nM] | apparent KD of MS2 coat protein [4] [nM]
UGUUGUUAAUUAGGAUAUGGGCACAUGAGGAUCACCCAUGUAUUUUCGAUGCUAUGUGGAGACGUCUAGAAGGGAUGGCUAACA [SameState NG2 #88] (Eterna round: R96, puzzle: Same State NG 2) | 254 | 151 | 158 | – | – | –
GUGGUCAGACAUGAGGAUCACCCAUGUGGAAUAAAUAAGGGAAAGGAUAUAAAAUAUAGGAUAUAUUAGAAGGUUCGGUUGGUG (Eterna round: R96, puzzle: Same State NG 3) | 131 | 83.9 | 89.6 | – | – | –
UGGCUCAGACUAGGAUAUACGUGGUCACAUGAGGAUCACCCAUGUCUCGAGCUUCGGCUCGAGGCGUAGAAGGAGUCUGAGCCA [SSNG2/6-D2] (Eterna round: R96, puzzle: Same State NG 2) | 145 | 199 | 184 | – | – | –
GGCUAUCGCGUACGAUAGCUGAAGCGUGUACAUGAGGAUCACCCAUGUCAUGUACAAGCUUUUUGCUCGUCUUAUUG [JL-shm-2.33 JL mod] (puzzle: Sensor for hsa-mir-208a) | – | – | – | 155 | 18.2 | 328
UUAGAAUUGCAAGGAUAUCUAAUGUAGAUAGUAAGAGAAGGUGCUUGAUAGUUACAUGAGGAUCACCCAUGUAUUUGGGUUUAU [JR_SSNG1_Sub057] (Eterna round: R96, puzzle: Same State NG 1) | – | 345 | – | – | – | –
AUUAAUUAAUUAAUACAUGAGGAUCACCCAUGUAAUAAGAUCAAGGAUAUCAGCUCGUUUAGAGCUGAGAAGGUGAUCACAUGU [SSNG3/17-B3] (Eterna round: R96, puzzle: Same State NG 3) | – | 246 | – | – | – | –
UAUUUAAUCAUAGGAUAUAGAGUGAAAUUUGGACUAGAAGGAUGUAACAUGAGGAUCACCCAUGUGGUAAGUGGGACACAGUGU [JR_SSNG1_Sub094] (Eterna round: R96, puzzle: Same State NG 1) | 206 | 85.5 | 129 | – | – | –
UGAACCUUCACAGGAUAUCAUGCGAAAAUUGCGUGAGAAGGGUGAAUAUGGUGUUCAUAGUUGCACAUGAGGAUCACCCAUGUA [SameState NG1 #53] (Eterna round: R96, puzzle: Same State NG 1) | – | 92.3 | – | – | – | –
AUGCCAAAAGGAGGAUAUGGAGCCUUAUUGGCUCCAGAAGGCUUGACAUGAGGAUCACCCAUGUGGCAGUGGUCUAAUGACCAC [Eli NG1ss - 43] (Eterna round: R96, puzzle: Same State NG 1) | – | 13.7 | – | – | – | –
UAGGAACAUGAGGAUCACCCAUGUACCUCAUAUGGAGAAACACAGGAUAUGCUCAGCGAAAGAGAGCAGAAGGGUGAAGAGAGG [Default title] (Eterna round: R96, puzzle: Same State NG 3) | 23.6 | 27.6 | 31.6 | – | – | –
UAGCACUGUCGAGAGGAUAUGCGGUGAUGGACAUGAGGAUCACCCAUGUUAGCGACAGCAUCACGGCAGAAGGCUCUACUGCUGC [Soteed Omei mod 35] (puzzle: Same State 2) | – | – | – | 11.7 | 15.6 | 13.7
AUUUUUAAUGCAGGAUAUGAUUAACAUGAGGAUCACCCAUGUGGUGUUGUGAGUAAGGAGAGUGAUCAGAAGGGCAUUUUUUAU [JMF's solution 86] (Eterna round: R96, puzzle: Same State NG 2) | 453 | 702 | 441 | – | – | –
GCAUUACAUGAGGAUCACCCAUGUCUCUAAAGUCGAGGAUAUGGGCAGGUUAUAUCCGAACCAGAAGGCGAAUUGC [SS1 Teenbexe 10] (puzzle: Same State 1) | – | – | – | 138 | 244 | 198
AUUCGUUUGAUAGGAUAUCACUUUACAUGAGGAUCACCCAUGUUCACCACGCUGGUCCCUUAUACUGAGAAGGAUCUUGAUGAC [JR_SSNG2_Sub008] (Eterna round: R96, puzzle: Same State NG 2) | 107 | 64.5 | 95.7 | – | – | –
CCGAUGGUAUACUAGGAUAUGGGCGCCCUUACAUGAGGAUCACCCAUGUUUACACAAAUCCGCGGCCAGAAGGAGUUCAUGGGAG [Orgere] (Eterna round: R96, puzzle: Same State 2) | 134 | 85.6 | 112 | – | – | –
UGGUACAUGGGAGGAUAUCAUGUAGAAACAUGAGGAUCACCCAUGUAGGUGGCCGGUAACCGGAAUGAGAAGGCCCAUGUACCU [JL SSNG1 3.62] (Eterna round: R96, puzzle: Same State NG 2) | 48.6 | 48.6 | 61.1 | – | – | –

Sequence | apparent KD of MS2 coat protein (input ligand: FMN 200 uM) [nM] | apparent KD of MS2 coat protein [1] [nM] | apparent KD of MS2 coat protein (input ligand: none) [nM] | apparent KD of MS2 coat protein [2] [nM] | apparent KD of MS2 coat protein [3] [nM] | apparent KD of MS2 coat protein [4] [nM]
UAGAGAGGAAGCGAGGAUAUCGUGUGAGGAACAUGAGGAUCACCCAUGUGUGAUGUUGAGAGAGACGAGAAGGCGCAGGAAAUUA [JR_SS2_Sub082] (puzzle: Same State 2) | – | – | – | – | 116 | –
GGGUGUGGAAGGAAAGAUAGGAAAAGGAAACAUGAGGAUCACCCAUGUGAAGGAAGAAAGGGAGCUCGUCUUAUAAG [JR_SHM208A_Sub001] (puzzle: Sensor for hsa-mir-208a) | – | – | – | 27.4 | 22.8 | 23.5
UUAAAACAUGAGGAUCACCCAUGUCAACAAAGUCGAGGAUAUGGGCAAAUAAAAUAAGAACCAGAAGGCGAAUAAA [salish99_SS1_r3_002] (puzzle: Same State 1) | – | – | – | 39.5 | 245 | 412
GAUCGUUUGAUAGGAUAUCGCUAUACAUGAGGAUCACCCAUGUUUACCACGCUGGUUUUUCAUACCGAGAAGGAUUCUGAUGAC [salish99_SSNG02_r04_007] (Eterna round: R96, puzzle: Same State NG 2) | 21.5 | 15.5 | 26.6 | – | – | –
UUAAAACAUGAGGAUCACCCAUGUAAUAAUAUGGGAGGAUAUCAGAAUGUAUGUAUGUAAUGAGAAGGCCUAAAUG [Mat - Same State 1 - Mod of Eli - D77] (puzzle: Same State 1) | – | – | – | 70.4 | 156 | 398
AAAUCAAGUAAAACAUGAGGAUCACCCAUGUGAGAAGCUUCCAAGGAUAUGGUAUGCAUGGAAACCCAGAAGGUGGUCAAAGCA [Eternabot solution 29] (Eterna round: R96, puzzle: Same State NG 3) | 247 | 181 | 272 | – | – | –
UCAAGGUUUUUGCUCGUUUUAUGUGUUGAACAUGAGGAUCACCCAUGUAUUGUACGAUCCAGUUAGAUGGUGGUUUG [JR_SHM208A_Sub042] (puzzle: Sensor for hsa-mir-208a) | – | – | – | 87.4 | 78.1 | 132
CUGAGCAAUCUAGGAUAUCACGUCGUUUAGACGUGAGAAGGAGAUCAUAACAUGAGGAUCACCCAUGUAUUACAUGAAGCUCAG [SSNG1/7-A3] (Eterna round: R96, puzzle: Same State NG 1) | 13.1 | 15.7 | 18.8 | – | – | –
GCGAGCGUACUUGCAGACAUGAGGAUCACCCAUGUAACUGGACAGGAUAUGGUACCGUUUCGGUACCAGAAGGGUCCAUAUGUC [JL SSNG3 3.54] (Eterna round: R96, puzzle: Same State NG 3) | 64.4 | 115 | 130 | – | – | –
GGAAGGAGGUCAGGAUAUGGAUGGAAGGUACAUGAGGAUCACCCAUGUUACGGAGGAAGGAAACGUUAGAAGGGAUAAGGAAGG [AK SSNG2-V2-2.1] (Eterna round: R96, puzzle: Same State NG 2) | 34.7 | 24.9 | 31.8 | – | – | –
CAAGCUUGGGUCUUCCCGCUCGUCUACAAACAUGAGGAUCACCCAUGUAUACUCUUCGCAUCAAUUCUAUCUCUUGG [Onraenbi] (Eterna round: R96, puzzle: Sensor for hsa-mir-208a) | 176 | 23.1 | 163 | – | – | –
GCGGAGAGGUAAGGAUAUCCAUGGAAGAAACAUGAGGAUCACCCAUGUAGGAAGAAGACUAGGAGGGAGAAGGUACCGGGACGC [AK SSNG2-V2-20.1] (Eterna round: R96, puzzle: Same State NG 2) | 29.2 | 26.2 | 40.5 | – | – | –
CCGAUGUAUGGAGGAUAUGGAGCCUUAUUGGCUCCAGAAGGCUAAUAACAUGAGGAUCACCCAUGUCGGCGGUCUAAUGACCGA [Eli NG1ss - 55] (Eterna round: R96, puzzle: Same State NG 1) | 48.2 | 49.3 | 112 | – | – | –
AAGAGGUCCGCAGGAUAUACCCGGGCUCGCCGGGUAGAAGGGUGAACCUCAUAACCCACCACACACAUGAGGAUCACCCAUGUA [Tedile] (Eterna round: R96, puzzle: Same State NG 1) | 113 | 219 | 4.57 | – | – | –
UGUUGUAUUACAGGAUAUCUAUUGUUUUUUUUUAGAGAAGGGUAUUCACAUGAGGAUCACCCAUGUAUAUACGAGGAAGUUGUG [JMF's solution 79] (Eterna round: R96, puzzle: Same State NG 1) | – | 43.2 | – | – | – | –
CCGAUGCUUAUAAAACAUGAGGAUCACCCAUGUGAGACACAUGAGGAUAUGCAGGUCAAAGACUUGCAGAAGGCAUAGCGUCGG [JL SSNG3 3.88] (Eterna round: R96, puzzle: Same State NG 3) | – | 360 | – | – | – | –
